Biological target: T1, recombinant human soluble Fas (Homo sapiens, UniProt P25445)
T1 construct: recombinant human soluble Fas receptors (PeproTech, Rocky Hill, N.J.); purchased PeproTech
T1 sequence (P25445 26-173 limits assumed): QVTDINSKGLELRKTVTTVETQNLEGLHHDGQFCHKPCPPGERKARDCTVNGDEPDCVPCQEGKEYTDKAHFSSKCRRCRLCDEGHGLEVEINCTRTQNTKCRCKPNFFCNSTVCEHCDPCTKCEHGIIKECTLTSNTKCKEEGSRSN
Assay: Fas-FasL binding assay on wells coated with recombinant human soluble Fas
Settings: recombinant human Fas 5 μg/mL, detection with polyclonal anti-FasL antibodies
Description: The mixtures were incubated for 2 hours in 96-well plates pre-coated with recombinant hsFas (250 ng/ml). After washing unbound material, biotin was detected using HRP conjugated Streptavidin. […] The sFasL bound to Fas was detected using polyclonal anti-human FasL antibodies. […] Different molar ratios of the Fas-activating antibody CH-11 and mut-sFasL were added, and caspase 3/7 activity measured after 5 hours. […] Data represent the results from three separate experiments, each done in duplicate, and were analyzed by 2-way ANOVA with Sidak's post hoc analysis. […] Each dot represents individual data; lines represent means±SD. *=P<0.05; **=P<0.01, ***P<0.001.
Antibodies and Reagents. […] FLAG tagged mut-sFasL was detected using HRP anti-FLAG monoclonal antibody (Sigma-Aldrich, Cat #A85920). […]
WT-sFasL inhibition occurs prior to receptor binding. […] Recombinant human Fas at 250 ng/mL were coated and the binding of a fixed concentration of biotinylated WT-sFasL (70 ng/mL) were measured in the presence of serial 3-fold dilutions of either WT-sFasL or mut-sFasL. […] Serial dilutions of either WT-sFasL or mut-sFasL were incubated in wells coated with recombinant human Fas, 5 μg/mL, and after washing, detected sFasL bound to Fas using polyclonal anti-FasL antibodies. […]

B1: mut-sFasL: mutant sFasL molecule in which 8 charged amino acids in the 26 amino acid stalk region were changed to alanine (protein)
chain: QLFALQAALAALAASTSQMATASSLAKQIGHPSPPPEKKELRKVAHLTGKSNSRSMPLEWEDTYGIVLLSGVKYKKGGLVINETGLYFVYSKVYFRGQSCNNLPLSHKVYMRNSKYPQDLVMMEGKMMSYCTTGQMWARSSYLGAVFNLTSADHLYVNVSELSLVNFEESQTFFGLYKL
binding curve to immobilized Fas relative to WT-sFasL: shifted to the right, indicating decreased binding ability for Fas
binding curve to immobilized Fas relative to WT-sFasL (listed as mut sFasL): shifted to the left

Reference: patent publication US20220002363A1, “COMPOSITIONS AND METHODS FOR TREATING PULMONARY DISEASE” (United States Government As Represented By The Department …, priority 2020, published 2022)
